Assay: HP-SEC as in Example 20; Fc:Fc self-oligomerization

IgG1-2F8-RGY (EGFR antibody 2F8 with E345R/E430G/S440Y)
fraction oligomer (HP-SEC): IgG1-2F8-RGY (74.5%)

IgG2-005-RGY (IgG2-005-E345R/E430G/S440Y)
% multimeric (HP-SEC): IgG2-005-RGY (46.1% multimeric)

IgG4-005-RGY
% multimeric (HP-SEC): IgG4-005-RGY (84.4% multimeric)

IgG1-7D8-RGY (CD20 antibody 7D8 with E345R/E430G/S440Y)
fraction oligomer (HP-SEC): IgG1-7D8-RGY (67.2%)

IgG3-005-RGY
% multimeric (HP-SEC): IgG3-005-RGY (37.8% multimeric)
